Assay results as given in publication PMC7570871, “Evaluation of a New ^177Lu-Labeled Somatostatin Analog for the Treatment of Tumors Expressing Somatostatin Receptor Subtypes 2 and 5” (Molecules, 2020).

Assay type: physicochemical
Details: pH 7.4
Method: To a pre-saturated mixture of 500 µL 1-octanol and 500 µL of phosphate-buffered saline (PBS) (pH 7.4), 10 µL of 1 µM of the ^177Lu-labeled conjugates were added. The solution was vortexed for 1 h to reach the equilibrium and then centrifuged (3000 rpm) for 10 min. From each phase, 100 µL of the aliquot was removed and measured in a γ-counter. Each measurement was repeated three times. Care was taken to avoid cross-contamination between the phases. The partition coefficient was calculated as the average of the logarithmic values (n = 3) of the ratio between the radioactivity in the organic and the PBS phase.

C[C@@H](O)[C@@H]1NC(=O)[C@H](CCCCN)NC(=O)[C@@H](Cc2c[nH]c3ccccc23)NC(=O)[C@H](Cc2cccc3ccccc23)NC(=O)[C@@H](NC(=O)[C@@H](Cc2ccccc2)NC(=O)CN2CCN(CC(=O)O)CCN(CC(=O)O)CCN(CC(=O)O)CC2)CSSC[C@@H](C(=O)N[C@H](CO)[C@@H](C)O)NC1=O [[^177Lu]Lu-DOTA-NOC, metal not drawn, reference compound]
logD: -1.6 ± 0.1
